Experimental data as given in patent US20040048242.

Target: T1, GST-pRb (non-acetylated), P06400
T1 chain: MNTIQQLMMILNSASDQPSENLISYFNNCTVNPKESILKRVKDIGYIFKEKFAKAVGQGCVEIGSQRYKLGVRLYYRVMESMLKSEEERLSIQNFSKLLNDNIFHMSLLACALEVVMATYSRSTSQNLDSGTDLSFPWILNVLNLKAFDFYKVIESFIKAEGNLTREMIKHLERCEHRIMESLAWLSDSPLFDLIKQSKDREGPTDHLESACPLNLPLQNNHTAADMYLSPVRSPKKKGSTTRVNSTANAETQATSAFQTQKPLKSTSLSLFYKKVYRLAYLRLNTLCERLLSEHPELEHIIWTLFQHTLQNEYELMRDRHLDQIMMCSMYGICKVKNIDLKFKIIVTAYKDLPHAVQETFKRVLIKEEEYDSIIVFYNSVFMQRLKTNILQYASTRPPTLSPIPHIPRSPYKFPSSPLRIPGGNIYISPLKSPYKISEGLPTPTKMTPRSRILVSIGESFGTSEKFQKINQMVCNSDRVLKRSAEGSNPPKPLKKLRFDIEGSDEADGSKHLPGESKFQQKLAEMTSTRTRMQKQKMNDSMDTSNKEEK

B1: his-tagged p300 1195-1673 (protein)
chain: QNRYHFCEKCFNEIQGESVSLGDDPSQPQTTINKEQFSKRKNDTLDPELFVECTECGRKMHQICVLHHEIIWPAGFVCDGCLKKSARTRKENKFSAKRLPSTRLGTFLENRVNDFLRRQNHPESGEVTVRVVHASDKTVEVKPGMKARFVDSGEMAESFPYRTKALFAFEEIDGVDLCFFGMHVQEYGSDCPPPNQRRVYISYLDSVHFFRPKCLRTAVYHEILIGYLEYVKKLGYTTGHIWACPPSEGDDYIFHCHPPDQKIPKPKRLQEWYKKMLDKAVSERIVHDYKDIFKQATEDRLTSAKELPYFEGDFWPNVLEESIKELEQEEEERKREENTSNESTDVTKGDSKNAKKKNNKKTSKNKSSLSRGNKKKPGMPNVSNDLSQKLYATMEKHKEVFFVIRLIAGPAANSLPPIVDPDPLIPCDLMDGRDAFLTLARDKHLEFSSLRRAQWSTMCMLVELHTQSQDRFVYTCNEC
For B1, the “in vitro acetylation of GST-pRb with 14C acetyl CoA” value was “GST-pRb could be acetylated by p300”.
